Laboratory results reported in article PMC7864079, “Molecular basis for histone H3 “K4me3-K9me3/2” methylation pattern readout by Spindlin1” (The Journal of Biological Chemistry, 2021).

Target: T1, Spindlin1_50–262 (Homo sapiens, UniProt Q9Y657)
T1 construct: The Spindlin1_50–262 samples were dialyzed against the buffer; GST (N, cleaved yes); made in house; host or cells: Escherichia coli BL21 (DE3)
Assay: Thermal shift assay (TSA), Spindlin1_50–262 mixed with histone H3 peptides
Format: binding
Settings: the row's label is the comparator peptide
Method: Recombinant proteins were overexpressed in Escherichia coli BL21 (DE3) strain. […] After cell lysis and centrifugation, the supernatant was loaded onto a GST affinity column and washed with lysis buffer. Then the bound proteins were subjected to on-column cleavage by PreScission Protease overnight. […] Purified peak fractions were concentrated to 25 mg/ml in 150 mM NaCl, 20 mM Tris, pH 8.0, aliquoted, and stored at −80°C for future use. The TSA was performed with a CFX96 real-time PCR instrument (Bio-Rad). […] All solutions were prepared in 25 µl of the same buffer (20 mM Hepes Na, pH 7.5, 150 mM NaCl) and incubated at 4°C for 1 h. During TSA assays, samples were heated from 25°C to 90°C at a rate of 0.5°C per minute. Protein denaturation progress was monitored by increased fluorescence signal of Sypro Orange, which captures the exposure of the protein hydrophobic core during thermal unfolding. Changes in the fluorescence signal were recorded and analyzed by the software CFX-Manager (Bio-Rad). When 50% of the protein is denatured, the folding and unfolding states of the protein are in dynamic equilibrium, and the corresponding temperature is the protein's melting temperature.

T1 sequence (Q9Y657 50-262): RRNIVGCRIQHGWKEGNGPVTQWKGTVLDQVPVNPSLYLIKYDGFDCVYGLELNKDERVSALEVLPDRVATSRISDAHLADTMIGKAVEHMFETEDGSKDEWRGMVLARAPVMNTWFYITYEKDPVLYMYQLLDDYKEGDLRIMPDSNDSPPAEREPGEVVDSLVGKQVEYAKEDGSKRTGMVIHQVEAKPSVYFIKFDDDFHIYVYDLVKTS

Question: Which “amount by which the Tm with H3_1–20 “K4me3-K9me3” ([…]) is greater than the Tm with this peptide” value does the source give for “unmodified H3_1–20: unmodified synthetic histone H3 residues 1–20 peptide” here?
Answer: 15.0 °C

Question: How did the “amount by which the Tm with H3_1–20 “K4me3-K9me3” ([…]) is greater than the Tm with this peptide” value turn out when “H3_1–20 K9me3: synthetic histone H3 residues 1–20 peptide with K9me3” was run?
Answer: 12.0 °C
